From publication PMC6041257

Molecular target: SUFU (UniProt Q9UMX1)
Test: co-immunoprecipitation (assumed)
Conditions: reference: GLI1-WT; sites S201,S204,S243

“GLI1 (from UniProt P08151) GLI1-S201/204/243A” was tested, and the “binding against the reference” value was “weaker”.
